Target: mutant human FcγRIIIa (V158) ectodomain (amino acid residues 1–175) with nine amino acid mutations a (human)
Test: SPR

- Kd: 1550 nM
- koff: 0.062 s⁻¹
- kon: 40000 M⁻¹ s⁻¹
Substance: Expi293-derived adalimumab (antibody)

Source: paper PMC9850916
